Reference: patent publication US20220112284A1 (Innovent, published 2022)
One block for each binder: values may come before it.

Legend:
[1] = target: T1, human PD-L1 on CHOS cells overexpressing PD-L1 (CHOS-PD-L1) (human, UniProt Q9NZQ7 19-290); assay: FACS on CHOS-PD-L1 cells, PE anti-human Fc detection
T1 construct: whole, on cells; also called CHO-PD-L1; PD-L1 on the cell surface
Experimental: (§1) 2) Detection: The cell suspension was centrifuged at 400 g on a centrifuge for 5 min to remove the cell culture medium. The serial dilutions of the bispecific antibody IGN-LP disclosed herein and anti-humanized Nb-Fc and anti-LAG-3 antibody ADI31853 as controls were added to the U-shaped plate at 100 μL each, and then the cells were resuspended and put onto the ice to stand for 30 min. The cell suspension was centrifuged at 400 g for 5 min to remove the supernatant, and the cells were washed with PBS to remove the unbound antibodies. The resulting cell suspension was centrifuged at 400 g for 5 min to remove PBS. 100 μL of the solution of PE-conjugated anti-human Fc antibody (Jackson Immuno Research) diluted at a ratio of 1:200 was added to each well, and the cells were incubated in the dark on the ice for 30 min. Then the cell suspension was centrifuged at 400 g for 5 min to remove the supernatant. The cells were washed with PBS once to remove the unbound PE-conjugated anti-human Fc antibody. Then the cells were resuspended with 100 μL of PBS, and the binding of the antibody to cells was assayed by FACS.

human PD-L1-his [2] = target: T2, human PD-L1-his (human, UniProt Q9NZQ7 19-238); assay: ForteBio Octet BLI; antibody on AHQ tip, human PD-L1-His 100 nM in solution
T2 construct: Bought reagent; also called PD-L1 protein; not shown: His tag
Experimental: (§2) The equilibrium dissociation constant (KD) for the binding of the prepared exemplary anti-LAG-3/PD-L1 bispecific antibody IGN-LP disclosed herein to LAG-3 and PD-L1 was determined by a kinetic binding assay using the Octet system manufactured by ForteBio. A ForteBio affinity assay was performed according to the method reported in the literature (Estep, P, et al., High throughput solution Based measurement of antibody-antigen affinity and epitope binning MAbs, 2013, 5(2): p. 270-278). Briefly:
(§3) The anti-human IgG Fc biosensor AHQ was immersed in each well containing the antibody solution at room temperature for 600 s to load the samples. The sensor was then washed in SD buffer until it returned to the baseline, and then immersed in a well containing 100 μL of the antigen solution to monitor the binding of the antibody to the antigen. The sensor was then transferred to a well containing 100 uL of the SD buffer to monitor the antibody dissociation (the operation procedures were set as: Baseline, Loading ˜1 nm, Baseline, Association and Dissociation, each running for a time depending on the binding and dissociation rates of the samples). The rotation speed was 400 rpm and the temperature was 30° C. […]

human PD-L1-his [3] = target: T2, human PD-L1-his; assay: ForteBio Octet BLI; antibody on AHQ tip, human PD-L1-His 100 nM in solution, monovalent
Experimental: as §2, §3

[4] = target: T3, human LAG-3 on 293 cells overexpressing human LAG-3 (293-LAG-3) (human, UniProt P18627 23-525); assay: FACS on 293-LAG-3 cells, PE anti-human Fc detection
T3 construct: whole, on cells; also called LAG-3 on the cell surface
T3 sequence (looked up): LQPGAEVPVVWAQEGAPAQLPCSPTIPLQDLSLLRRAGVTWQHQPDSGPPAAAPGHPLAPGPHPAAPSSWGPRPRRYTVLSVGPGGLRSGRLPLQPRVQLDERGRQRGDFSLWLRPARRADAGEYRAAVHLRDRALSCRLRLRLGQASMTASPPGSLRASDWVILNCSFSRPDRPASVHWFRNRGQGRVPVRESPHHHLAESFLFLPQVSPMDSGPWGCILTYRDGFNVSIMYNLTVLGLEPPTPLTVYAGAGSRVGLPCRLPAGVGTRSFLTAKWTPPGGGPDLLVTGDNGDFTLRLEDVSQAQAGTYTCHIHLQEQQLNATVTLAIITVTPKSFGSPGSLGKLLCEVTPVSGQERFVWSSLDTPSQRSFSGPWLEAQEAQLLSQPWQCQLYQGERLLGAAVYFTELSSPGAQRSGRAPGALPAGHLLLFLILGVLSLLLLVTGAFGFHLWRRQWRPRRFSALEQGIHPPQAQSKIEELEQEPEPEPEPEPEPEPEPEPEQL
Experimental: as §1

human LAG-3-his [5] = target: T4, human LAG-3-his (human, UniProt P18627 23-450); assay: ForteBio Octet BLI; antibody on AHQ tip, human LAG-3-His 100 nM in solution
T4 construct: Bought reagent; also called LAG-3 protein; not shown: His tag
T4 sequence (looked up): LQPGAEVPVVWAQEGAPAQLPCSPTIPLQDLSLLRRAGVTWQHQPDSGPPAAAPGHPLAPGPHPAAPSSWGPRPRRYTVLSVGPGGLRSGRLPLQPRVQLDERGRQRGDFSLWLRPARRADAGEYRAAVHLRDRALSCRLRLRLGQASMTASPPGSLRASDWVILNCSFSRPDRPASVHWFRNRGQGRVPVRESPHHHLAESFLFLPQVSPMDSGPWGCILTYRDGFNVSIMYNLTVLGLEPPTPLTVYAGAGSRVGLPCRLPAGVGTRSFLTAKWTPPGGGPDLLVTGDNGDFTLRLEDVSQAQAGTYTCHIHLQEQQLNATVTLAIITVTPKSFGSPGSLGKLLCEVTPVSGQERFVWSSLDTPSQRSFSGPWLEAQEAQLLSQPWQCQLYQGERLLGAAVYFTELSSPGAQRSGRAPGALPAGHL
Experimental: as §2, §3

human LAG-3-his [6] = target: T4, human LAG-3-his; assay: ForteBio Octet BLI; antibody on AHQ tip, human LAG-3-His 100 nM in solution, monovalent
Experimental: as §2, §3

T2 sequence (Q9NZQ7 19-238 limits assumed): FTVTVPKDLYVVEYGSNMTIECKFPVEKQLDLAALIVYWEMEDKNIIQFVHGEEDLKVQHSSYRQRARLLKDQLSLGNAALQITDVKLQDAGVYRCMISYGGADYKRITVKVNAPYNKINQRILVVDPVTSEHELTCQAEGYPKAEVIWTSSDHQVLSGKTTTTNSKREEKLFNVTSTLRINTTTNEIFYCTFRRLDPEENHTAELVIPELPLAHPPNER
T1 sequence (Q9NZQ7 19-290): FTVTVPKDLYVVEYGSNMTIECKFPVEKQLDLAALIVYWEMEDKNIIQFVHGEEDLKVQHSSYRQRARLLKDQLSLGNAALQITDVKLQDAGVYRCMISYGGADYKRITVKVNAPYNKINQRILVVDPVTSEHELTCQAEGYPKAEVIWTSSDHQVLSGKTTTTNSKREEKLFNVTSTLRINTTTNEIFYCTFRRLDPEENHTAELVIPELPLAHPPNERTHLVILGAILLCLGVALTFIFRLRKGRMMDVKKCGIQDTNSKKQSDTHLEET

EC50 [1]: 1.2 nM
koff (human PD-L1-his [2]): 0.00356 s⁻¹
kon (human PD-L1-his [2]): 310000 M⁻¹ s⁻¹
Kd (human PD-L1-his [3]): 11.5 nM
B1: anti-PD-L1 humanized Nb-Fc antibody (Fc fusion)
chain: QVQLQESGGGLVQPGGSLRLSCAASAYTISRNSMGWFRQAPGKGLEGVAAIESDGSTSYSDSVKGRFTISLDNSKNTLYLEMNSLRAEDTAVYYCAAPKVGLGPRTALGHLAFMTLPALNYWGQGTLVTVSS
notes: The VHH is inferred from the words 'parent antibody' / 'parental anti-PD-L1 antibody'; also called anti-humanized Nb-Fc; parental anti-PD-L1 antibody; not shown: the antibody was obtained according to ZL201710657665.3

EC50 [4]: 0.504 nM
koff (human LAG-3-his [5]): 0.0002 s⁻¹
kon (human LAG-3-his [5]): 128000 M⁻¹ s⁻¹
Kd (human LAG-3-his [6]): 1.56 nM
B2: anti-LAG-3 antibody ADI-31853 (antibody, human IgG1, kappa, L234A L235A, V domains shown)
VH: QLQLQESGPGLVKPSETLSLTCTVSGGSIYSESYYWGWIRQPPGKGLEWIGSIVYSGYTYYNPSLKSRVTISVDTSKNQFSLKLSSVTAADTAVYYCARVRTWDAAFDIWGQGTMVTVSS
VL: DIQMTQSPSSLSASVGDRVTITCQASQDISNYLNWYQQKPGKAPKLLIYDASNLETGVPSRFSGSGSGTDFTFTISSLQPEDIATYYCQQVLELPPWTFGGGTKVEIKR
notes: also called parental anti-LAG-3 antibody
